The term Kd denotes the constant that tells how readily two partners part at equilibrium.

The experiment deals with T1, recombinant MDM2 protein (UniProt Q00987 1-491).
T1 construct: MDM2 E3 ubiquitin ligase, recombinant version used in sandwich ELISA; Source, limits and tags of the recombinant MDM2 may stand in Supplementary Methods; source: recombinant
The experiment is described as follows: ELISA; protein-protein sandwich ELISA on 96-well plates with his-tagged recombinant FAT or PI3K domain and recombinant MDM2; details in Supplementary Methods. On the technique in general: In an ELISA, binding on a coated surface is turned into a signal by an enzyme label.

T1 sequence (Q00987 whole entry): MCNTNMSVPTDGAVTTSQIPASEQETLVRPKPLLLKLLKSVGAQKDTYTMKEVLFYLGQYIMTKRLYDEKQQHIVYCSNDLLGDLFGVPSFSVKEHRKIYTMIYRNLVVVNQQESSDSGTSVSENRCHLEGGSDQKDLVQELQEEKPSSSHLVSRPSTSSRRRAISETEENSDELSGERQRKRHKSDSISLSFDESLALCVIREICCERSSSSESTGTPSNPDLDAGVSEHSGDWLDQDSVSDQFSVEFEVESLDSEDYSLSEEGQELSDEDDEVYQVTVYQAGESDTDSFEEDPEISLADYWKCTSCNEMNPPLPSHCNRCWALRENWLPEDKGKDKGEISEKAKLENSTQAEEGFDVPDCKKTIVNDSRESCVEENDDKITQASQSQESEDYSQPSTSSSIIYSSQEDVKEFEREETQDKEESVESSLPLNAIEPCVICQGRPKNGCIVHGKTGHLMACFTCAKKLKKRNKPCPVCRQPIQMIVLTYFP

B1: recombinant FAT domain of ATM (rFAT), his-tagged (domain or fragment)
chain: EVAKVAQSCAAHFTALLYAEIYADKKSMDDQEKRSLAFEEGSQSTTISSLSEKSKEETGISLQDLLLEIYRSIGEPDSLYGCGGGKMLQPITRLRTYEHEAMWGKALVTYDLETAIPSSTRQAGIIQALQNLGLCHILSVYLKGLDYENKDWCPELEELHYQAAWRNMQWDHCTSVSKEVEGTSYHESLYNALQSLRDREFSTFYESLKYARVKEVEEMCKRSLESVYSLYPTLSRLQAIGELESIGELFSRSVTHRQLSEVYIKWQKHSQLLKDSDFSFQEPIMALRTVILEILMEKEMDNSQRECIKDILTKHLVELSILARTFKNTQLPERAIFQIKQYNSVSCGVSEWQLEEAQVFWAKKEQSLALSILKQMIKKLDASCAANNPSLKLTYTECLRVCGNWLAETCLENPAVIMQTYLEKAVEVAGNYDGESSDELRNGKMKAFLSLARFSDTQYQRIENYMKSSEFENKQALLKRAKEEVGLLREHKIQTNRYTVKVQRELELDELALRALKEDRKRFLCKAVENYINCLLSGEEHDMWVFRLCSLWLENSGVSEVNGMMKRDGMKIPTYKFLPLMYQLAARMGTKMMGGLGFHEVLNNLISRISMDHPHHTLFIILALANA
In the case of B1, the Kd came out at 30 nM.

B2: recombinant PI3K domain of ATM (rPI3K), his-tagged (domain or fragment)
chain: FKAEFRLAGGVNLPKIIDCVGSDGKERRQLVKGRDDLRQDAVMQQVFQMCNTLLQRNTETRKRKLTICTYKVVPLSQRSGVLEWCTGTVPIGEFLVNNEDGAHKRYRPNDFSAFQCQKKMMEVQKKSFEEKYEVFMDVCQNFQPVFRYFCMEKFLDPAIWFEKRLAYTRSVATSSIVGYILGLGDRHVQNILINEQSAELVHIDLGVAFEQGKILPTPETVPFRLTRDIVDGMGITGVEGVFRRCCEKTMEVMRNSQETLLTIVEVLLYDPLFDWTMNPLKALYLQQRPEDETELHPTLNADDQECKRNLSDI
Take B2: the dissociation constant Kd amounted to 186 nM.

Values taken from paper PMC10804554, “The DNA damage sensor ATM kinase interacts with the p53 mRNA and guides the DNA damage response pathway” (Molecular Cancer, 2024).
